Series [1] can be described thus: PET hydrolysis, aromatic products released after 48 h (umol product/mg enzyme); higher = more PET depolymerization activity. How it is done: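 HTP-purified, SUMO-cleaved, tagless PET hydrolase candidates (5 ug, 1.43 mg/g PET) were incubated 48 h without shaking with 3.5 mg amorphous PET film (aFilm) or crystalline PET powder (cryPow) in 0.5 mL buffer: NaCitrate pH 4.5/5.5, NaPhosphate pH 6.5/7.5, glycine pH 8.5. Incubation was at 40 or 60 C. Aromatic products (TPA, MHET, BHET) in the supernatant were quantified by UV absorbance at 260/280 nm relative to buffer blanks and expressed per mg enzyme. LCC-ICCG was the positive control on every plate.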

The nature of series [2]: melting temperature (DSF); higher = more thermostable. How it is done: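 Candidate PET hydrolases were expressed in E. coli C41(DE3) in 2 mL autoinduction cultures in 24-deep-well plates, Ni-bead purified and released by SUMO protease cleavage on an OT-2 robot. Yield per well was measured by BCA; values below 25 ug (0.1 mg/mL) are below the detection threshold. Melting temperature was measured by differential scanning fluorimetry with Sypro Orange, ramping from 25 C at 0.3 C/step.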

Series [3] can be described thus: purified protein yield per well (BCA); higher = higher soluble expression. A digest of the protocol: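 Purified protein yield per well is reported, as measured by the Pierce Rapid Gold BCA kit. The enzymes came from E. coli C41(DE3) autoinduction cultures of 2 mL with 100 µg/mL kanamycin, held at 37 °C for 2 h and 18 °C for 40 h, then lysed and purified on Ni-charged magnetic beads with SUMO protease release. The detection threshold is 25 ug (0.1 mg/mL), and lower values are under it.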

Where [4] appears, read: substrate: cryPow, 40 °C, pH 4.5.
Where [5] appears, read: substrate: cryPow, 40 °C, pH 5.5.
[6] abbreviates: substrate: cryPow, 40 °C, pH 6.5.
The mark [7] stands for this setting: substrate: cryPow, 40 °C, pH 7.5.
Setting [8] is: substrate: cryPow, 60 °C, pH 4.5.
The mark [9] stands for this setting: substrate: cryPow, 60 °C, pH 5.5.
[10] abbreviates: substrate: cryPow, 60 °C, pH 6.5.
Setting [11] is: substrate: cryPow, 60 °C, pH 7.5.
Where [12] appears, read: substrate: cryPow, 40 °C, pH 8.5.
[13] abbreviates: substrate: cryPow, 60 °C, pH 8.5.

As to “ADNPYQRGPDPTAASVTAVNGPFANTSVSVPTGYGFNGGRIYYPTDTSQGTFGAIAISPGYTALFSAELAWMGPWLASHGFVVIGIETNSRNDFDTARGTQLLAALDYLTQQSPVRDRVDPNRLAVAGHSMGGGGALSAATRRPSLKAVVGIAPYSPSSNLANDRVPTMIFAGQADTVVTPSYATGLYNSLPTTTESTYLEVAGADHGFMVGRSNPVLVRTMLPFVKMFLDNDARYSQFLCPLLDNSGVVTYRSTCPLLPSTPTSPTPTTTPTSTPTPTPTVTPTTPPGSASQIVGTQSGRCVDVPNASRTNGTRVHLWDCNRQANQAWTYTANKQLQVYGTMCLDAAGTGNGAAVQIYSCHGQTNQQWNVNSNGTISSVQSGRCLDVWSTANGAQVQLYDCHGQTNQQFRLTALN [ESM130]”, the PET hydrolysis in series [1] (setting [4]) is under 3; in series [1] (setting [5]) it was 6; in series [1] (setting [6]), 3; in series [1] (setting [7]), under 3; in series [1] (setting [8]), under 3; in series [1] (setting [9]), under 3. Also, the PET hydrolysis in series [1] (setting [10]) and in series [1] (setting [11]) was under 3 each time. This sequence also yielded a melting temperature in series [2] of 58 C. Moreover, the “purified protein yield per well” value in series [3] worked out at 138 µg.
As for “QYQKGPDPTVAGLERDGTFAIRTTTVSRLSASGFGGGTIYYPTATGSYGVVAVSPGFTAYQSSISWIGSRLASHGFVVITIDTNTTSDQPDSRARQLKAALDKVVSLASSRTNVLYGKVDSSRLAVAGHSMGGGGSLAAARDYPSLKASVPLAPWHTTKSFSTVRVPTLIVGADGDTVASVTSHSIPFYTSIPSSTPKGYLELNNEDHFFPQDSGEYGLVGKYMISWFKRFVDSDTRYSPFLCGAPHQTQIANTLRVSDSRTNCPY [DP038]”, the PET hydrolysis was 6 in series [1] (setting [5]); 55 in series [1] (setting [6]); 59 in series [1] (setting [7]); 54 in series [1] (setting [12]); under 3 in series [1] (setting [9]); under 3 in series [1] (setting [10]). In addition, the PET hydrolysis in series [1] (setting [11]) and in series [1] (setting [13]) was under 3 in each case. Further, in series [2], the melting temperature came to 56.2 C. Besides, in series [3], the “purified protein yield per well” value was found to be 54 µg.
As for “ADNPYQRGPAPTNTSIEATRGTYAVSTKTISALSARGFGGGTIYYPTSTADGTFGVVAISPGYTASQSTIAWLGPRLASFGFVVVTIDTTTRYDQPTSRGSQLLAALDQAIGDSTVGPRIDATRQAVVGHSMGGGGTLEAAKTRRSLEAAVPLTGWNLDKTWPEVEAATLVIGAQNDTVAPTTSHSIPFYNSLSGAERKAYLELRGASHFAPVTSNTTIAKHTLSWLKRYVDDDTRYEQFISPGPSTAIGSPVSDYRVN [DP022]”, the PET hydrolysis in series [1] (substrate: aFilm, 40 °C, pH 5.5) is under 3; in series [1] (substrate: aFilm, 40 °C, pH 6.5), under 3; in series [1] (substrate: aFilm, 40 °C, pH 7.5), under 3; in series [1] (substrate: aFilm, 40 °C, pH 8.5), under 3; in series [1] (substrate: aFilm, 60 °C, pH 5.5), under 3; in series [1] (substrate: aFilm, 60 °C, pH 6.5), under 3. Also, the PET hydrolysis is under 3 in series [1] (substrate: aFilm, 60 °C, pH 7.5); under 3 in series [1] (substrate: aFilm, 60 °C, pH 8.5); under 3 in series [1] (setting [5]); under 3 in series [1] (setting [6]); under 3 in series [1] (setting [7]); under 3 in series [1] (setting [12]). The PET hydrolysis in series [1] (setting [9]), in series [1] (setting [10]), in series [1] (setting [11]) and in series [1] (setting [13]) was under 3 throughout. The melting temperature in series [2] came out at 35.8 C. For the same sequence, the “purified protein yield per well” value in series [3] came to 215 µg.
“AESPYQRGPDPTRESVAASRGTFATAEVSVPAGNGFGGGVIYYPTDTSQGTFGGVAIVPGYTATWAAEGAWMGHWLASFGFVVIGIDTINRNDWDTARGTQLLAALDYLTQRSSVRNRVDANRLAVMGHSMGGGGAMHAALQRPSLKAAIGLAPFSPSQNLTNMRVPTLLVAGQNDTTTTPTSILNLYNGIPATTEKAYLELTGAGHGFPTSANSVMTRKVIPWLKIFVDHDTRYHQFLCPLLDWTGITAYRSSCPLNPPGGPTGSTFSLVGADSGKCVDVPGASRTNGTGLITYTCNGASNQRWTQTAANELRIYDNSKCMEAGTSAGSRAVITSCTGGNGQKWTFNANGTITHAQSGLCLYVNGGSTANQAAVIVWTCHGGSNQVWTRQP [TEP163]”: the PET hydrolysis in series [1] (setting [4]) was under 3; in series [1] (setting [5]), 8; in series [1] (setting [6]), 8; in series [1] (setting [7]), 5; in series [1] (setting [8]), under 3; in series [1] (setting [9]) it was under 3. Moreover, the values for the PET hydrolysis in series [1] (setting [10]) and in series [1] (setting [11]) were 3 and under 3, respectively. The sequence further had a melting temperature in series [2] of 73 C. Further, the “purified protein yield per well” value in series [3] worked out at 148 µg.
For “QSSSCSLMGDVNESNGVDIVDALLIAQAYVGLNPEMEYNPCADVDCSGSMNIVDALLVAQKYVGLISNFPCQISPEPTTEPTSEPVLFIACGSSSAVGSFQADEYFSGGNTHSNSNSVDISRITVNTPPAGLFNNERYGEMSYNIPGLSAGETYTVTLYFAETYLSSSGSRLFNVSINHSDVLTSFDIYDSAGGQNIAVSYSFITTADNSGNILIDFASVTENPKINGIAIMAGIGPTNVPTPEPTPTPENSGFQRGPDPSLASISANRGTFATAELTFPAGNGFGGGFIYYPTDTSLGTWGAVAICPGGSAKFANEETWMGHWLASFGFVVIGIETNNTFDFPESRGTQLLAALDYLVQKSAVKDRVDPDRLMVMGHSMGGGGAFHAALARSSLKTMVALAPWFNTNLTSPSLSNLRMPTMVISARNDTVVTPASCSAIYDKIPTSTQRAWVELAADDHLGFIKPNYTEMRVLIPWMKIFLDSDERYVQFLCPMANSSNISIYKNSCPLVP [TEP098]”, the PET hydrolysis in series [1] (setting [4]), in series [1] (setting [5]), in series [1] (setting [6]) and in series [1] (setting [7]) was under 3 each time. Also, the melting temperature in series [2] worked out at 51.7 C. Moreover, in series [3], the “purified protein yield per well” value was found to be 50.5 µg.

The values are drawn from the supplement of paper PMC12455559.
